In data set [1] the test system is BRCA2 (Flag-F9). Description: Co-immunoprecipitation of GFP-HSF2BP variants with Flag-BRCA2 F9. It is filed as cell-based, human. The conditions noted are these: transient HEK293T / stable HeLa, anti-GFP beads, immunoblot. From the text:
Expression constructs for producing point mutation and truncation variants of HS2BP and BRCA2 in human cells were engineered as described before[16] in the PiggyBac vectors by Gibson assembly. For transient expression into HEK293T cells plasmid DNA was transfected using calcium precipitation method or PEI transfection. For stable integration into HeLa cells, PiggyBac expression vectors were co-lipofected together with PiggyBac transposase plasmid (hyPBase[45]) with Lipofectamine 3000 (Thermo Fisher).
Cells were washed twice in ice-cold PBS and lysed in situ in NETT buffer (100 mM NaCl, 50 mM Tris pH 7.5, 5 mM EDTA pH 8.0, 0.5% Triton-X100) supplemented immediately before use with protease inhibitor cocktail (Roche) and 0.4 mg/ml Pefabloc (Roche) (NETT++); 450 µl NETT++ buffer was used per 145 mm dish ES cells, 1 ml for HeLa and HEK293T. After 5–10 min, cells were scraped off and collected in 1.5 ml microcentrifuge tubes; lysis was continued for additional 20–30 min on ice, then mixtures were centrifuged (15 min, 4 °C, 14,000 × g) and the supernatant (input) was added to washed anti-GFP beads (Chromotek). Beads and lysates were incubated 2–4 h at 4 °C while rotating, washed three times in NETT++ buffer and bound proteins were eluted by boiling in 2x Sample buffer. Immunoblotting was performed following standard procedures with the following antibodies: anti-GFP mAb (Roche, #11814460001), anti-GFP pAb (Abcam #ab290 and Invitrogen #A11122), anti-RAD51[46], anti-BRCA2 mAb Ab1 OP-95 (Millipore #OP95), anti-BRCA2 (Abcam #27976), anti-Flag (M2 antibody, Sigma, F3165 and F1804). For quantitative immunoblotting fluorescently labeled secondary antibodies were used: anti-mouse CF680 (Sigma #SAB460199), anti-rabbit CF770 (Sigma #SAB460215); membranes were scanned using Odyssey CLx imaging system (LI-COR).
(In general: In western blotting, separated proteins are transferred to a membrane and probed.)

In data set [2] the target is T1, ARM domain of HSF2BP (Homo sapiens, UniProt O75031).
T1 construct: The armadillo domain of HSF2BP, from aa 122 to aa 334; 6xHis-TEV (N, cleaved yes); made in house; host or cells: E. coli BL21 DE3 Rosetta2
T1 sequence (O75031 122-334): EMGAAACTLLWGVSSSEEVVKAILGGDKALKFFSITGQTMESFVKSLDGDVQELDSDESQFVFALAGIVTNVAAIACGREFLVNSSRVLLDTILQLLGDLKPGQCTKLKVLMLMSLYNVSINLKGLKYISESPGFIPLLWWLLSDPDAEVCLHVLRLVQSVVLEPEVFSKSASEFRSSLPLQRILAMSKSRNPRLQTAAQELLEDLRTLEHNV
Description: SEC-MALS of ARM free or bound to F15X. Format: physicochemical. Here is the method:
Size-exclusion chromatography (SEC) coupled to MALS was used in order to measure the molecular masses of the complexes in solution. Therefore, HSF2BP and ARM proteins were loaded in the presence and absence of the BRCA2 fragment F15X on a Superdex 200 10/300 GL (GE Healthcare) using a HPLC Shimadzu system coupled to MALS/QELS/UV/RI (Wyatt Technology). The chromatography buffer was 25 mM Tris-HCl buffer, pH 7.5, 250 mM NaCl, 5 mM β-mercaptoethanol. The proteins were injected at 0.8–1 mg/ml in 100 μl. Data were analyzed using the ASTRA software; a calibration was performed with BSA as a standard.
For orientation: In gel filtration, larger molecules generally elute earlier.

Data set [3] concerns the target T2, Human full-length HSF2BP WT (human), O75031.
T2 chain: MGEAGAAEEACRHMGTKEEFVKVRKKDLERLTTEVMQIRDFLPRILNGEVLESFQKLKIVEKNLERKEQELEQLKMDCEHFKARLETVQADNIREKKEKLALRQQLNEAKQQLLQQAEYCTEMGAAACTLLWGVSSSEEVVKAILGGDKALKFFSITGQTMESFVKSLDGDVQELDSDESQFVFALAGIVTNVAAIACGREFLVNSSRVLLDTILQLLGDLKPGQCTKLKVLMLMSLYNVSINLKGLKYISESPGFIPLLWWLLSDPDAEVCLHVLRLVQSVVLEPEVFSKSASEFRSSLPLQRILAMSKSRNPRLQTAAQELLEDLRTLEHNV
Description: ITC; HSF2BP or ARM in the cell at 10-20 uM, BRCA2 fragment in the syringe at 40-100 uM; 293 K; 25 mM Tris pH 7.5, 250 mM NaCl, 5 mM beta-mercaptoethanol; two replicates.

In data set [4] the target is T3, armadillo domain of HSF2BP, from aa 122 to aa 334 (ARM) (human, UniProt O75031 122-334).
T3 construct: Free ARM is a dimer (SEC-MALS); four ARM with two F15X in the complex; A selenomethionine-labelled form was used for the deposited crystal structure; also called HSF2BP ARM; H3 (recombinant); source: E. coli BL21 DE3 Rosetta2, purified (HisTrap, TEV cleavage, SEC)
T3 sequence (looked up): T1 sequence (O75031 122-334)
The data set is described as above. The conditions noted are these: both partners purified.

Data set [5] deals with T4, Human full-length HSF2BP WT (human, UniProt O75031 1-334).
T4 construct: HSF2BP, human, full length, wild type; pETM11 (6xHis-TEV) vector; purified as in Brandsma et al., Cell Rep 2019; also called HSF2BP FL; HFS2BP; source: E. coli BL21 DE3 Rosetta2, purified (HisTrap, TEV cleavage, SEC)
T4 sequence (looked up): T2 chain
The data set is described as above. The conditions noted are these: both partners purified.

“And” between values parts separate entries of the source, which are not always exact repeats. Identical values can stand only once.

B1: H3: HSF2BP fragment E122-V334, armadillo domain (protein)
chain: T1 sequence (O75031 122-334)
modifications: left off: His6, end not stated, cleaved
notes: HSF2BP fragment E122-V334, armadillo domain
As to B1, in data set [1], the “binding to BRCA2 (co-precipitation)” value was “minimal interaction region”. For the same molecule, in data set [2] (SEC-MALS and SEC-SAXS), the “oligomeric state of ARM” value is listed as “dimeric”. In addition, the “molecular weight of species in solution” value in data set [2] (SEC-MALS, Superdex 200 10/300 GL, 25 mM Tris-HCl pH 7.5, 250 mM NaCl, 5 mM β-mercaptoethanol) is 48 kDa.

B2: BRCA2 peptide F15X∆12 (D2312-E2342) (peptide)
chain: DGTIKDRRLFMHHVSLEPITTVPFRTTKERQ
modifications: not checked
Consider B2, for which, in data set [3], the dissociation constant (Kd) (commonly the free concentration of one partner at which half of the binding sites on the other are occupied at equilibrium, for simple one-to-one binding) was 2100 nM and 1500 nM; the dH is -1.8 kcal/mol and -1.7 kcal/mol; the stoichiometry N (commonly the number of molecules, sites or subunits per partner or assembly) is 0.9 and 0.89.

B3: Human BRCA2 fragment F0 (S2213-Q2342, C2332T) (domain or fragment, UniProt P51587 2213-2342, looked up)
chain: STYSKDSENYFETEAVEIAKAFMEDDELTDSKLPSHATHSLFTCPENEEMVLSNSRIGKRRGEPLILVGEPSIKRNLLNEFDRIIENQEKSLKASKSTPDGTIKDRRLFMHHVSLEPITTVPFRTTKERQ
notes: BRCA2, human, residues 2213-2342 with C2332T; pET-22b fusion: BRCA2 fragment, TEV site, GB1, 6xHis; residues of the TEV site may remain at the C-terminus after cleavage (surmise); 15N- or 15N/13C-labelled for NMR; also called BRCA2-F0; source: E. coli BL21 DE3 Star, purified (HisTrap, TEV cleavage, SEC); not shown: GB1, C-terminal, cleaved; His6, C-terminal, cleaved
B3: in data set [4], the Kd is 31 nM and 25 nM; the dH was -8.3 kcal/mol and -11.9 kcal/mol; the “stoichiometry N” value is 0.45 and 0.49. In data set [5], the affinity, expressed as Kd, was 1.3 nM; the dH is -11 kcal/mol and -10.9 kcal/mol; the “stoichiometry N” value is 0.43 and 0.47.

Source of the values: PMC8322138, “BRCA2 binding through a cryptic repeated motif to HSF2BP oligomers does not impact meiotic recombination” (Nature Communications, 2021).
